Our source for the binding result and OD450 측정값 values is KR20210143097A (dated 2021).

In assay [1] the target is T1, CD22 on B-cell lymphoma U2932 cells (UniProt P20273 20-847, limits assumed).
T1 construct: whole, on cells; Endogenous CD22 on the U2932 cell line; also called CD22를 발현하는 비세포림프종 U2932; CD22를 발현하는 U2932 세포
T1 sequence (looked up): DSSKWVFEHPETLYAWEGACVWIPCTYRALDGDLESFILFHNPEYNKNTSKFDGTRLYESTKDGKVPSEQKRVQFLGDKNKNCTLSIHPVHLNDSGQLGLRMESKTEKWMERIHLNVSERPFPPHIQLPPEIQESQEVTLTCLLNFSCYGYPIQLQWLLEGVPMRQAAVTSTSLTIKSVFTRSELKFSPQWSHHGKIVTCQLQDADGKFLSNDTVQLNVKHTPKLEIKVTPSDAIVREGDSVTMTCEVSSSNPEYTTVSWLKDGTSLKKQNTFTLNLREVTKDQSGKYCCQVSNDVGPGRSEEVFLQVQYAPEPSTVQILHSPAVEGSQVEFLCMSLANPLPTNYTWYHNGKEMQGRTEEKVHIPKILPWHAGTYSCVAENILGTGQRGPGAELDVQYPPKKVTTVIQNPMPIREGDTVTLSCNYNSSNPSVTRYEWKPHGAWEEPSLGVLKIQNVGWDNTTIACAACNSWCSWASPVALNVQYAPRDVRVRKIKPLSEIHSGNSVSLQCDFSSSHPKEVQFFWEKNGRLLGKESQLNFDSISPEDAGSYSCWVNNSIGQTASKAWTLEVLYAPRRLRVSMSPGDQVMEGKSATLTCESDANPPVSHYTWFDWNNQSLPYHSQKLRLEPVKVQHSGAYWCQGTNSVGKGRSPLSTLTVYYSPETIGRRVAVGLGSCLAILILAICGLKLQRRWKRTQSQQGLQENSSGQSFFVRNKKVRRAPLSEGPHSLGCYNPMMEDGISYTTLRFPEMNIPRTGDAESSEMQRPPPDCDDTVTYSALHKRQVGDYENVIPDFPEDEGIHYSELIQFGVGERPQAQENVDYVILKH
Briefly: flow cytometry on U2932 cells, 1 ㎍ antibody per 1x10^6 cells, PE anti-mouse IgG secondary.

Assay [2] concerns the target CD22-His tag (CD22 extracellular domain; ACRObiosystems Inc.) (UniProt P20273). Description: ELISA, CD22-His tag coated at 100 ng/well, primary antibody 0.4 ㎍/㎖, absorbance at 450 nm.

B1: 3F11 항체 (antibody, V domains shown)
VH: EVKLVESGGGLVQPGGSMKLSCVASGFTFSNYWMNWVRQSPEKGLEWVAEIRLKSNNYATHYAESVKGRFTISRDDSKSSVYLQMNNLRAEDTGIYYCTSIYYYGRDYAMDYWGQGTSVTVSS
VL: DIVMTQSPAIMSASLGERVTMTCTASSSVSSSYLHWYQQKPGSSPKLWIYSTSNLASGVPARFSGSGSGTSYSLTISSMEAEDAATYYCHQYHRSPYTFGGGTKLEIK
notes: Antibody from a mouse hybridoma, detected with an anti-mouse IgG secondary antibody
Regarding B1, the binding result in assay [1] was “binds”. This molecule also showed an OD450 측정값 in assay [2] of 1.86.

B2: 7B5 항체 (antibody, V domains shown)
VH: EVQLEESGPGLVAPSQSLSITCTVSGFSLTRYDISWIRQPPGKGLEWLGVMWTGGGTNYNSAFMSRLSISRDNSKSQVFLKMNSLQTDDTAIYYCVRSYYGSAMDYWGQGTSVTVSS
VL: DIVMTQSSSYLSVSLGGRVTITCKASDHINNWLAWYQQKPGNAPRLLISGATSLETGVPSRFSGSGSGKDYTLSITSLQTEDVATYYCQQHWSTPFTFGSGTKLEIK
notes: as for B1
On to B2, for which, in assay [1], the binding result is listed as “binds”. In assay [2], this molecule registered an OD450 측정값 of 2.66.
